Assay [1] deals with T1, recombinant LDHA (human, UniProt P00338 1-332).
The target of assay [2] is T1, recombinant LDHA. The source holds these as a separate data set.

Broadly, the IC50 is the concentration at which inhibition is half-maximal. As a reminder, the Ki is a dissociation constant, usually derived from enzyme kinetics or from competition with a known ligand. Consider AQRMNTAFTP [FLCN-10 peptide], for which the IC50 with recombinant LDHA [1] worked out at 82.2 nM. The inhibitory constant (Ki) with recombinant LDHA [2] turned out to be 57.4 nM.

The values above are taken from US20200407397A1 (published 2020).
